Measurements published in patent publication EP3228631A2 (TLA Targeted Immunotherapies AB, dated 2017).
Each block holds one molecule with its values, some of them ahead of it.

Key:
hCXCR1 (human) = hCXCR1 (human) (UniProt P25024); assay: cell-based or functional assay
CCR5 (human) [1] = target: CCR5 (human) (UniProt P51681); assay: cell-based or functional assay
CCR1 (human) = target: T1, CCR1 (human) (UniProt P32246); assay: blood passed through the biotinylated RANTES coupled matrix column; flow cytometry for CCR1, 3 or 5-expressing cells; one healthy donor
T1 sequence (looked up): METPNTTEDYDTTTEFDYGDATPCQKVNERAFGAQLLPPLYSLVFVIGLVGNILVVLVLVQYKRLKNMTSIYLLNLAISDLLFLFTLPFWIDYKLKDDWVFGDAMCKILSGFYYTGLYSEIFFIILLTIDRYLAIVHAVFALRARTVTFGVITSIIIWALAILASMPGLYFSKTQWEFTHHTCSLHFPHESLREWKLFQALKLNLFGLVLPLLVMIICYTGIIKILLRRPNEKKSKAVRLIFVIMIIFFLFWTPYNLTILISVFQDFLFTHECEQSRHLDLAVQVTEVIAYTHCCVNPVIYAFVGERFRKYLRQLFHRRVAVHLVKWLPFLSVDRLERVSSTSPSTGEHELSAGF

CCR5 (human) [2] = target: CCR5 (human) (UniProt P51681); assay: as above
CCR3 (human) [3] = target: CCR3 (human) (UniProt P51677); assay: as above
CCR3 (human) [4] = target: CCR3 (human) (UniProt P51677); assay: blood passed through the eotaxin coupled matrix (MACS beads, magnetic separator); flow cytometry before and after; one healthy donor
CCR7 = target: T2, CCR7 (human, UniProt P32248 25-378); assay: cell-based or functional assay
T2 sequence (looked up): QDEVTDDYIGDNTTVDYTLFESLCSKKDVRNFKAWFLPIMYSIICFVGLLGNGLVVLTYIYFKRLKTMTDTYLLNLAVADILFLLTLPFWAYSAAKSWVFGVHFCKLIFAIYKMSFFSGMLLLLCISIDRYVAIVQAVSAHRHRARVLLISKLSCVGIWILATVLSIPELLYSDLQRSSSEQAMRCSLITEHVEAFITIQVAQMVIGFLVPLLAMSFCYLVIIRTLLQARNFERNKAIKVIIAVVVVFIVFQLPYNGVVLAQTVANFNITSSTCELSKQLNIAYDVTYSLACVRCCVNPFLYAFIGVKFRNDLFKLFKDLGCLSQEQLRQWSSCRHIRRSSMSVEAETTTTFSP

CCR3 (human) [5] = target: CCR3 (human) (UniProt P51677); assay: cell-based or functional assay
hCCR2b = target: T3, hCCR2b (human, UniProt P41597 1-374); assay: cell-based or functional assay
T3 chain: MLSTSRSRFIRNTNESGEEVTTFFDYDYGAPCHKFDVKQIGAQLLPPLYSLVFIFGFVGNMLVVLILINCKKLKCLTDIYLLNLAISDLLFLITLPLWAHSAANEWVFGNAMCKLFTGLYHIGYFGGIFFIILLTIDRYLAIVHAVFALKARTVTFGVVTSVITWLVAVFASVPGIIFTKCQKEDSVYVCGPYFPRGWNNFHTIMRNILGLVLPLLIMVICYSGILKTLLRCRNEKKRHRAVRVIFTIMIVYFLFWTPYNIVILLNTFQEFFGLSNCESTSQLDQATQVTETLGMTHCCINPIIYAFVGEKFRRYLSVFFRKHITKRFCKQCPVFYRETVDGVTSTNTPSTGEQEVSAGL

Sequence of CCR3 (human) (P51677 whole entry): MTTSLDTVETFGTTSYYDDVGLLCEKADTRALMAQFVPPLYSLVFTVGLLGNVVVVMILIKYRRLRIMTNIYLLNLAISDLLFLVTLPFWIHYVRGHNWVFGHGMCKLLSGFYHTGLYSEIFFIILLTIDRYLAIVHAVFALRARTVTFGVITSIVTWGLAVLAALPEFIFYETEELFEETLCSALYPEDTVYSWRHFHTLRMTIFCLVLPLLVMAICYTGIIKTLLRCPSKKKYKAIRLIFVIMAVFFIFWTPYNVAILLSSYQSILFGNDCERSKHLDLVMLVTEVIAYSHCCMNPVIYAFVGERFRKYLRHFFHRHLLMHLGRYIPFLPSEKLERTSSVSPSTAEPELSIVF
Sequence of hCXCR1 (human) (P25024 whole entry): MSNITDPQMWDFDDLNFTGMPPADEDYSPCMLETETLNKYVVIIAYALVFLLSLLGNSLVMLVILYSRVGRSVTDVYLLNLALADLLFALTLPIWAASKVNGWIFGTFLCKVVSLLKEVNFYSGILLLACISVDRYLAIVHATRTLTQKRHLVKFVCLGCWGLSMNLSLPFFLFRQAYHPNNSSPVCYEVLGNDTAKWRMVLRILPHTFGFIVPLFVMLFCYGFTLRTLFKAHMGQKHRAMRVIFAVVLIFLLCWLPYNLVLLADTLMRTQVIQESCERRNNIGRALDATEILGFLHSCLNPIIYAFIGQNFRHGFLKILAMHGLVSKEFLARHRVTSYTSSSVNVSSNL
Sequence of CCR5 (human) (P51681 whole entry): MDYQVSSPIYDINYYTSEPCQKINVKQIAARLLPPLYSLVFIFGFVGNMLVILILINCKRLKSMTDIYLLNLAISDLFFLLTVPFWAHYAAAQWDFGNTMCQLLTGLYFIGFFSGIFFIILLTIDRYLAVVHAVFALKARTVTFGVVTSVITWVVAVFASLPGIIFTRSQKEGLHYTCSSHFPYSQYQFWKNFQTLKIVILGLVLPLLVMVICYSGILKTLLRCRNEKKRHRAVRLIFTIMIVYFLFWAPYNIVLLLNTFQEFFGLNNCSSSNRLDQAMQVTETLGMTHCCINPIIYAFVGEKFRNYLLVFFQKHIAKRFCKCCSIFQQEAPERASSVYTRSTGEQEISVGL

Molecule: biotinIL-8 (6-78) (IL-8 (6-78) derivatised at the ε-amino side chain functionality of Lys(78) with PEG-Biotin) (from UniProt P10145 28-99) (ligand)
EC50, agonist activity, Aequorin assay (hCXCR1 (human)): 6.1 nM

Molecule: recombinant native IL-8 (from UniProt P10145 28-99) (ligand)
EC50, Aequorin assay (hCXCR1 (human)): 4.2 nM

Molecule: recombinant native MIP-3β (from UniProt Q99731 22-98) (ligand)
EC50, Aequorin assay (CCR7): 1.6 nM

Molecule: recombinant native eotaxin (from UniProt P51671 24-97) (ligand)
EC50, agonist, Aequorin assay (CCR3 (human) [5]): 10.7 nM

Other lines, results leading:

EC50, agonist activity, Aequorin assay (CCR5 (human) [1]): 0.5 nM | reduction of chemokine receptor-expressing cells by the column (CCR1 (human)): 20% | reduction of chemokine receptor-expressing cells by the column (CCR5 (human) [2]): 20% | reduction of chemokine receptor-expressing cells by the column (CCR3 (human) [3]): 20%
Molecule: biotinRANTES (RANTES derivatised at the ε-amino side chain functionality of Lys(67) with Biotin) (from UniProt P13501 24-91) (ligand)

reduction of CCR3-expressing cells by the column (CCR3 (human) [4]): 25%
Molecule: biotinylated eotaxin (from UniProt P51671 24-97) (ligand)

EC50, partial agonist, Aequorin assay (hCCR2b): 23.5 nM
B1: recombinant native MCP-2 (ligand, human, UniProt P80075 24-99, looked up)
chain: QPDSVSIPITCCFNVINRKIPIQRLESYTRITNIQCPKEAVIFKTKRGKEVCADPKERWVRDSMKHLDQIFQNLKP

EC50, agonist activity, Aequorin assay (CCR7): 11 nM
B2: biotinMIP-3β (MIP-3β derivatised at the ε-amino side chain functionality of Lys(78) with Biotin) (ligand)
chain: GTNDAEDCCLSVTQKPIPGYIVRNFHYLLIKDGCRVPAVVFTTLRGRQLCAPPDQPWVERIIQRLQRTSAKMKRRSSX
modifications: X78 = K(Biotin) (additional C-terminal lysine, biotinylated); C-terminal amide (Rink Amide resin)
